According to paper PMC6534667:

Biological target: scFv PL2-6 (single-chain antibody variable fragment);Histone octamer H3 (H2A, H2B, H3, H4) (Mus musculus (mouse mAb PL2-6);Drosophila) (UniProt P84051+P02283+P02299+P84040)
Experiment: ITC
Conditions: ITC: 20 mM Tris-HCl pH 7.4, 50 mM NaCl, 1 mM EDTA, 25 C; EMSA: 10 mM Tris pH 7.4, 1 mM EDTA, 30 mM NaCl, 1% Ficoll 6000, on ice 10 min, 5% acrylamide gel in …

Substance 147 bp Widom 601 DNA (W601) has a Kd of 0.19 µM.
